Test results published in PMC9239988 (Nature Communications, 2022).

Columns and labels:
[1] = target: TBEV prMe-linker-sE single-chain protein (tick-borne encephalitis virus strain Neudoerfl) (UniProt P14336); assay: crystal structure; uncleaved single-chain prMe-linker-sE; PDB 7QRF
[2] = target: Tick-borne encephalitis virus (TBEV) soluble envelope protein E (sE) (Tick-borne encephalitis virus, strain Neudoerfl); assay: crystal structure
[3] = target: Tick-borne encephalitis virus (TBEV) soluble envelope protein E (sE) (Tick-borne encephalitis virus, strain Neudoerfl); assay: SEC-MALS
[4] = target: TBEV prMe-linker-sE single-chain construct (Tick-borne encephalitis virus, strain Neudoerfl); assay: crystal structure; prMe-linker-sE single chain, crystallisation pH 3.5, PDB 7QRF

Substance: TBEV prMe-linker-sE single-chain protein (from UniProt P14336 2-401)
- stoichiometry N [1]: 2

Substance: Tick-borne encephalitis virus (TBEV) soluble envelope protein E (sE) (domain or fragment)
- stoichiometry N [2]: 2
- stoichiometry N [3]: 2

Substance: TBEV prMe-linker-sE single-chain construct
- stoichiometry N [4]: 2
